The values below come from patent US20180355009A1.

First the molecules themselves.
T1: human IL-22 receptor complex IL22R1 and IL10R2, overexpressed on HEK 293 cells (human) (UniProt Q8N6P7)
T1 sequence (looked up) 1: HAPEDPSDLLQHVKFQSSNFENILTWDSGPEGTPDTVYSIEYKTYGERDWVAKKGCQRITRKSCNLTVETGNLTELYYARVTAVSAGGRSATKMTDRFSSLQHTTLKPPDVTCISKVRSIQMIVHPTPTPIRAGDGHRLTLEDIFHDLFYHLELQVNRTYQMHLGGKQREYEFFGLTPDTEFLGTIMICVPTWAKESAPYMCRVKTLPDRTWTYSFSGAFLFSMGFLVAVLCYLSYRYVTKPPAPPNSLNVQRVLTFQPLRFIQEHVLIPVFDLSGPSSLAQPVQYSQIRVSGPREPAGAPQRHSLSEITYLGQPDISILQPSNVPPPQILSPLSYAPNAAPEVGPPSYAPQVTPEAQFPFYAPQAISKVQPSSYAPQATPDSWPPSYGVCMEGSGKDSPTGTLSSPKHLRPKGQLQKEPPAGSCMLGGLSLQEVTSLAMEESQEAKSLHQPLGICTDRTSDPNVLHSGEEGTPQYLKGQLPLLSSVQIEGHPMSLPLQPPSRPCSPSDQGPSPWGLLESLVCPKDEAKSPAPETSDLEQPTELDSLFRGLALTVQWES
T1 sequence (looked up) 2: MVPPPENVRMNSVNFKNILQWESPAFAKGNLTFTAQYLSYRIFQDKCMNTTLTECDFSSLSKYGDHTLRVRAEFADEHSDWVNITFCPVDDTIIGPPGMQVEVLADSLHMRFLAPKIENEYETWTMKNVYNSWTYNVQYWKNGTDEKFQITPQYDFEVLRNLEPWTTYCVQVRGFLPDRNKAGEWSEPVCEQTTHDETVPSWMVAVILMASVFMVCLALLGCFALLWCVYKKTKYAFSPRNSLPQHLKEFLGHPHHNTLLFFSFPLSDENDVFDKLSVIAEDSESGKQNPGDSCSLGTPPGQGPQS

B1: IL-22 Fc construct 18 (huIgG1, linker …, N297G, produced in CHO) (Fc fusion, not shown: a dimerising Fc or GST)
chain: APISSHCRLDKSNFQQPYITNRTFMLAKEASLADNNTDVRLIGEKLFHGVSMSERCYLMKQVLNFTLEEVLFPQSDRFQPYMQEVVPFLARLSNRLSTCHIEGDDLHIQRNVQKLKDTVKKLGESGEIKAIGELDLLFMSLRNACIKKVEPKSSDKTHT
B2: IL-22 Fc construct 13 (huIgG1, linker …, produced in CHO) (Fc fusion, not shown: a dimerising Fc or GST)
chain: APISSHCRLDKSNFQQPYITNRTFMLAKEASLADNNTDVRLIGEKLFHGVSMSERCYLMKQVLNFTLEEVLFPQSDRFQPYMQEVVPFLARLSNRLSTCHIEGDDLHIQRNVQKLKDTVKKLGESGEIKAIGELDLLFMSLRNACIKVDKKVEPKSSDKTHT
B3: IL-22 Fc construct 24 (huIgG1, linker …, produced in E. coli) (Fc fusion, not shown: a dimerising Fc or GST)
chain: APISSHCRLDKSNFQQPYITNRTFMLAKEASLADNNTDVRLIGEKLFHGVSMSERCYLMKQVLNFTLEEVLFPQSDRFQPYMQEVVPFLARLSNRLSTCHIEGDDLHIQRNVQKLKDTVKKLGESGEIKAIGELDLLFMSLRNACIEPKSSDKTHT
B4: IL-22 Fc construct 12 (huIgG1, linker …, produced in CHO) (Fc fusion, not shown: a dimerising Fc or GST)
chain: APISSHCRLDKSNFQQPYITNRTFMLAKEASLADNNTDVRLIGEKLFHGVSMSERCYLMKQVLNFTLEEVLFPQSDRFQPYMQEVVPFLARLSNRLSTCHIEGDDLHIQRNVQKLKDTVKKLGESGEIKAIGELDLLFMSLRNACIDKKVEPKSSDKTHT

This assay addresses T1, human IL-22 receptor complex IL22R1 and IL10R2, overexpressed on HEK 293 cells (human). Briefly: cell-based or functional assay.
In the case of B1, the EC50 (pM), STAT3 luciferase reporter assay was 20 pM.

In turn, B2 yielded an EC50 (pM), STAT3 luciferase reporter assay of 25 pM.

For the molecule B3, the EC50 (pM), STAT3 luciferase reporter assay is 16 pM.

As for B4, the EC50 (pM), STAT3 luciferase reporter assay was determined as 25 pM.
